Assay [1] concerns the target T1, human trypsin 2 with serine to alanine mutation (including a His tag at C terminus) (human, UniProt P07478 25-247, limits assumed).
T1 construct: also called Trypsin 2 S to A
As to the kind of experiment: SPR (Biacore), antibody captured on Protein A chip, single-cycle kinetics, 25 C. The method, then: (§1) Antibody binding kinetic experiments via Biacore were performed to screen for anti-trypsin 1/trypsin 2 antibodies having high affinity to the respective targets. All screening assays were performed at 25 C. The running buffer used was 20 mM HEPES, 300 mM NaCl, 1 mM CaCl₂, 0.01% Tween-20, pH 7.5. Antibodies (1 ug/mL) were captured on Fc2-4 of a Series S ProteinA Sensor Chip (Cytiva) flowing at 10 uL/min for 30 s. Kinetics measurements were made in single-cycle kinetics mode with a series of 4-5 concentrations with top concentration of 10-200 nM and serial dilution 4-fold. Contact time was typically 180-300 s and dissociation time ranged from 300-3600 s. Flow rate of 30 uL/min was typically used. The sensor chip was regenerated with 10 mM glycine, pH 1.5 with a contact time of 30 s flowing at 50 uL/min.
A general note: In SPR one partner is held on a chip, and binding of the other changes the refractive index at the surface.

In assay [2] the target is T2, human trypsin 1 with serine to alanine mutation (including a His tag at C terminus) (human, UniProt P07477 24-247).
T2 construct: also called Trypsin 1 S to A
The assay is described as above. The method, then:
as §1

Assay [3] deals with human PRSS1 (R&D Systems), activated with enterokinase (human, UniProt P07477 24-247). Description: cell-based or functional assay.
Another assay deals with Native Trypsin (abcam). Description: cell-based or functional assay.
Assay [4] deals with PRSS2 (R&D Systems), activated with enterokinase (human, UniProt P07478 24-247). Description: cell-based or functional assay.

Here are results for one molecule from patent US20260274991A1 (TRIVENI BIO, published 2026).

As usually defined, the Kd is the constant that tells how readily two partners part at equilibrium.

T1 sequence (P07478 other isoform, or with tags, fused parts or gaps limits assumed): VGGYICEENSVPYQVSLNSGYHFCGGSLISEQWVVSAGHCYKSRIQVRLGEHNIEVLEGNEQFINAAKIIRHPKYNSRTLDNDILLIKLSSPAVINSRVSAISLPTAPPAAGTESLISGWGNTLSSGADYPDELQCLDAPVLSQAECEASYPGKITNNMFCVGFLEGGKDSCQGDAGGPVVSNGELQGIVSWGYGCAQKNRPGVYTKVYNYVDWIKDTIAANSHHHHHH
PRSS2 (R&D Systems), activated with enterokinase, sequence (P07478 24-247 limits assumed): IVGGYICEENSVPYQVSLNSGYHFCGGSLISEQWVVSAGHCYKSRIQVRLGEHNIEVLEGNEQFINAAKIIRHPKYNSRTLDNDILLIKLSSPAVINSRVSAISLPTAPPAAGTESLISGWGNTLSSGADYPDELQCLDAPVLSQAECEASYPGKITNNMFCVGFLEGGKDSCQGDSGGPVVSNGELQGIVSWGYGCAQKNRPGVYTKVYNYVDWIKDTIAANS

B1: Trypsin 1/Trypsin 2-Dual-L5-Ab2 (antibody, V domains shown)
VH: QVQLVQSGAEVKKPGASVKVSCKASGYTFEGHYMHWVRQAPGQGLEWMGAINPYSGQTNYAQKFQGRVTMTRDTSISTAYMELSRLRSDDTAVYYCARDFVLLLRQSRILHESAFDIWGQGTTVTVSS
VL: EIVMTQSPATLSVSPGERATLSCRASQSVGSNLAWYQQKPGQAPRLLIYGASTRATGIPARFSGSGSGTEFTLTISSLQSEDFAVYYCQQFHNWPPLTFGGGTKVEIK
Turning to B1, the figures for the dissociation constant (Kd) in assay [1] and in assay [2] were 0.00648 nM and below 0.01 nM, respectively. Further, in assay [3], the “IC50 Against 1 nM hTryp-1” value came to 5.87 nM. For the same molecule, the “IC50 Against 0.25 nM Native Trypsin” value with Native Trypsin (abcam) came out at 9.82 nM. The “IC50 Against 1 nM hTryp-2” value in assay [4] was found to be 6.09 nM.
